The numbers were not newly measured in article PMC7465391, “1,4-Disubstituted 1,2,3-Triazoles as Amide Bond Surrogates for the Stabilisation of Linear Peptides with Biological Activity” (Molecules, 2020), which cites them from elsewhere.

The target in this series is delta opioid receptor (DOPr) (UniProt P41143). Kind of series: radioligand.

Consider Leu-enkephalin, for which the Ki is 6.3 nM.

What is called Ki is the dissociation constant of the complex between target and ligand, obtained from inhibition or displacement.
